Experimental data: the supplement of paper PMC10567573

B1: CDC25B (parent)
chain: FVDILESDLKDDDAVPPGMESLIS
B2: PKD2L1 (parent)
chain: YSGGGYYLDLPGSRQGSAEALRAL
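Note: lentivirally expressed fusions sorted by FACS into six bins by GFP to DsRed ratio, PSI derived from sequencing read proportions per bin multiplied by bin number.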

Variants of: B1
Assay: protein stability index of a GFP-peptide fusion (GPS, HEK-293T) (PSI 1-6); higher = more stable
Details: c terminus: a fixed tail appended
For FVDILESDLKDDDAVPPGMESLWS [I23W], the protein stability index was 2.25. FVDILESDLKDDDAVPPGMESLYS [I23Y] showed a protein stability index of 2.69. In the case of FVDILESDLKDDDAVPPGMESLQS [I23Q], the protein stability index is reported as 3.77. In the case of FVDILESDLKDDDAVPPGMESLVS [I23V], the protein stability index is reported as 2.65. FVDILESDLKDDDAVPPGMESLPS [I23P] showed a protein stability index of 2.96. FVDILESDLKDDDAVPPGMESLSS [I23S] gave a protein stability index of 3.3. In the case of FVDILESDLKDDDAVPPGMESLTS [I23T], the protein stability index is reported as 2.91. FVDILESDLKDDDAVPPGMESLRS [I23R] gave a protein stability index of 2.77. For FVDILESDLKDDDAVPPGMESLII [S24I], the protein stability index was 2.69. With FVDILESDLKDDDAVPPGMESLID [S24D] the protein stability index was 3.45. FVDILESDLKDDDAVPPGMESLIK [S24K] gave a protein stability index of 2.82. For FVDILESDLKDDDAVPPGMESLIQ [S24Q], the protein stability index was 3.9. Work on FVDILESDLKDDDAVPPGMESLIE [S24E] yielded a protein stability index of 3.27. Work on FVDILESDLKDDDAVPPGMESLIV [S24V] yielded a protein stability index of 2.41. For FVDILESDLKDDDAVPPGMESLIP [S24P], the protein stability index was 2.57. Variant FVDILESDLKDDDAVPPGMESLIW [S24W] has a protein stability index of 1.72. FVDILESDLKDDDAVPPGMESLIC [S24C] showed a protein stability index of 2.66. FVDILESDLKDDDAVPPGMESLIR [S24R] gave a protein stability index of 2.96. For FVDILESDLKDDDAVPPGMESLIF [S24F], the protein stability index was 2.01. FVDILESDLKDDDAVPPGMESLIM [S24M] gave a protein stability index of 2.52. Work on FVDILESDLKDDDAVPPGMESLIA [S24A] yielded a protein stability index of 3.1. With FVDILESDLKDDDAVPPGMESLIT [S24T] the protein stability index was 3.02. In the case of FVDILESDLKDDDAVPPGMESLIG [S24G], the protein stability index is reported as 3.02. For FVDILESDLKDDDAVPPGMESLIN [S24N], the protein stability index was 2.85. For FVDILESDLKDDDAVPPGMESLIY [S24Y], the protein stability index was 2.47. For FVDILESDLKDDDAVPPGMESLIH [S24H], the protein stability index was 2.94. In the case of FVDILESDLKDDDAVPPGMESLIL [S24L], the protein stability index is reported as 2.18.

Variants of: B2
Assay: as above
Details: c terminus: a fixed tail appended
Variant YSEGGYYLDLPGSRQGSAEALRAL [G3E] has a protein stability index of 2.06. For YSKGGYYLDLPGSRQGSAEALRAL [G3K], the protein stability index was 2.37. With YSWGGYYLDLPGSRQGSAEALRAL [G3W] the protein stability index was 2.09. With YSTGGYYLDLPGSRQGSAEALRAL [G3T] the protein stability index was 1.93. YSFGGYYLDLPGSRQGSAEALRAL [G3F] showed a protein stability index of 1.45. YSVGGYYLDLPGSRQGSAEALRAL [G3V] gave a protein stability index of 2.21. For YSMGGYYLDLPGSRQGSAEALRAL [G3M], the protein stability index was 2.12. Work on YSAGGYYLDLPGSRQGSAEALRAL [G3A] yielded a protein stability index of 1.58. In the case of YSSGGYYLDLPGSRQGSAEALRAL [G3S], the protein stability index is reported as 1.73. YSDGGYYLDLPGSRQGSAEALRAL [G3D] gave a protein stability index of 2.5. For YSCGGYYLDLPGSRQGSAEALRAL [G3C], the protein stability index was 2.41. YSQGGYYLDLPGSRQGSAEALRAL [G3Q] gave a protein stability index of 1.52. YSNGGYYLDLPGSRQGSAEALRAL [G3N] showed a protein stability index of 1.52. Work on YSHGGYYLDLPGSRQGSAEALRAL [G3H] yielded a protein stability index of 2.02. YSRGGYYLDLPGSRQGSAEALRAL [G3R] gave a protein stability index of 2.47. For YSIGGYYLDLPGSRQGSAEALRAL [G3I], the protein stability index was 2.27. Work on YSPGGYYLDLPGSRQGSAEALRAL [G3P] yielded a protein stability index of 2.31. YSYGGYYLDLPGSRQGSAEALRAL [G3Y] showed a protein stability index of 1.7. Work on YSLGGYYLDLPGSRQGSAEALRAL [G3L] yielded a protein stability index of 2.87. In the case of YSGGGYFLDLPGSRQGSAEALRAL [Y7F], the protein stability index is reported as 1.56. In the case of YSGGGYQLDLPGSRQGSAEALRAL [Y7Q], the protein stability index is reported as 2.4. In the case of YSGGGYSLDLPGSRQGSAEALRAL [Y7S], the protein stability index is reported as 3.21. For YSGGGYTLDLPGSRQGSAEALRAL [Y7T], the protein stability index was 2.71. Work on YSGGGYMLDLPGSRQGSAEALRAL [Y7M] yielded a protein stability index of 1.61. YSGGGYILDLPGSRQGSAEALRAL [Y7I] showed a protein stability index of 1.39. Variant YSGGGYELDLPGSRQGSAEALRAL [Y7E] has a protein stability index of 3.37. YSGGGYVLDLPGSRQGSAEALRAL [Y7V] gave a protein stability index of 2.21. Variant YSGGGYWLDLPGSRQGSAEALRAL [Y7W] has a protein stability index of 1.91. In the case of YSGGGYKLDLPGSRQGSAEALRAL [Y7K], the protein stability index is reported as 2.75. Work on YSGGGYNLDLPGSRQGSAEALRAL [Y7N] yielded a protein stability index of 2.59. With YSGGGYDLDLPGSRQGSAEALRAL [Y7D] the protein stability index was 3.25. YSGGGYCLDLPGSRQGSAEALRAL [Y7C] showed a protein stability index of 1.93. Variant YSGGGYLLDLPGSRQGSAEALRAL [Y7L] has a protein stability index of 1.66. For YSGGGYHLDLPGSRQGSAEALRAL [Y7H], the protein stability index was 2.26. In the case of YSGGGYGLDLPGSRQGSAEALRAL [Y7G], the protein stability index is reported as 2.24. Work on YSGGGYALDLPGSRQGSAEALRAL [Y7A] yielded a protein stability index of 2.17. Variant YSGGGYPLDLPGSRQGSAEALRAL [Y7P] has a protein stability index of 2.96. In the case of YSGGGYRLDLPGSRQGSAEALRAL [Y7R], the protein stability index is reported as 2.06. Work on ASGGGYYLDLPGSRQGSAEALRAL [Y1A] yielded a protein stability index of 3.15. For ESGGGYYLDLPGSRQGSAEALRAL [Y1E], the protein stability index was 3.75. CSGGGYYLDLPGSRQGSAEALRAL [Y1C] gave a protein stability index of 2.29. TSGGGYYLDLPGSRQGSAEALRAL [Y1T] showed a protein stability index of 3.58. Work on GSGGGYYLDLPGSRQGSAEALRAL [Y1G] yielded a protein stability index of 3.66. In the case of ISGGGYYLDLPGSRQGSAEALRAL [Y1I], the protein stability index is reported as 2.72. In the case of MSGGGYYLDLPGSRQGSAEALRAL [Y1M], the protein stability index is reported as 2.99. PSGGGYYLDLPGSRQGSAEALRAL [Y1P] showed a protein stability index of 3.49. VSGGGYYLDLPGSRQGSAEALRAL [Y1V] gave a protein stability index of 2.98. Variant RSGGGYYLDLPGSRQGSAEALRAL [Y1R] has a protein stability index of 3.13. In the case of FSGGGYYLDLPGSRQGSAEALRAL [Y1F], the protein stability index is reported as 2.68. HSGGGYYLDLPGSRQGSAEALRAL [Y1H] showed a protein stability index of 3.5. Work on QSGGGYYLDLPGSRQGSAEALRAL [Y1Q] yielded a protein stability index of 3.75. NSGGGYYLDLPGSRQGSAEALRAL [Y1N] gave a protein stability index of 3.58. For KSGGGYYLDLPGSRQGSAEALRAL [Y1K], the protein stability index was 3.16. For WSGGGYYLDLPGSRQGSAEALRAL [Y1W], the protein stability index was 2.94. Work on DSGGGYYLDLPGSRQGSAEALRAL [Y1D] yielded a protein stability index of 4.08. In the case of SSGGGYYLDLPGSRQGSAEALRAL [Y1S], the protein stability index is reported as 3.48. For LSGGGYYLDLPGSRQGSAEALRAL [Y1L], the protein stability index was 3.1. In the case of YSGGGKYLDLPGSRQGSAEALRAL [Y6K], the protein stability index is reported as 2.66. In the case of YSGGGSYLDLPGSRQGSAEALRAL [Y6S], the protein stability index is reported as 3.28. YSGGGTYLDLPGSRQGSAEALRAL [Y6T] showed a protein stability index of 2.75. Work on YSGGGWYLDLPGSRQGSAEALRAL [Y6W] yielded a protein stability index of 5.5. YSGGGMYLDLPGSRQGSAEALRAL [Y6M] showed a protein stability index of 2.16. For YSGGGPYLDLPGSRQGSAEALRAL [Y6P], the protein stability index was 2.42. YSGGGEYLDLPGSRQGSAEALRAL [Y6E] showed a protein stability index of 3.37. With YSGGGRYLDLPGSRQGSAEALRAL [Y6R] the protein stability index was 2.64. For YSGGGGYLDLPGSRQGSAEALRAL [Y6G], the protein stability index was 1.84. In the case of YSGGGCYLDLPGSRQGSAEALRAL [Y6C], the protein stability index is reported as 2.75.
